4 molecules from US20230141962A1 (published 2023) can be followed below.

Sequences and labels used below:
T1: HCoV-NL63 Spike/S1 Protein (HCoV-NL63, UniProt Q6Q1S2 19-717)
T1 construct: domain: Spike/S1; also called NL63-HIS
T1 sequence: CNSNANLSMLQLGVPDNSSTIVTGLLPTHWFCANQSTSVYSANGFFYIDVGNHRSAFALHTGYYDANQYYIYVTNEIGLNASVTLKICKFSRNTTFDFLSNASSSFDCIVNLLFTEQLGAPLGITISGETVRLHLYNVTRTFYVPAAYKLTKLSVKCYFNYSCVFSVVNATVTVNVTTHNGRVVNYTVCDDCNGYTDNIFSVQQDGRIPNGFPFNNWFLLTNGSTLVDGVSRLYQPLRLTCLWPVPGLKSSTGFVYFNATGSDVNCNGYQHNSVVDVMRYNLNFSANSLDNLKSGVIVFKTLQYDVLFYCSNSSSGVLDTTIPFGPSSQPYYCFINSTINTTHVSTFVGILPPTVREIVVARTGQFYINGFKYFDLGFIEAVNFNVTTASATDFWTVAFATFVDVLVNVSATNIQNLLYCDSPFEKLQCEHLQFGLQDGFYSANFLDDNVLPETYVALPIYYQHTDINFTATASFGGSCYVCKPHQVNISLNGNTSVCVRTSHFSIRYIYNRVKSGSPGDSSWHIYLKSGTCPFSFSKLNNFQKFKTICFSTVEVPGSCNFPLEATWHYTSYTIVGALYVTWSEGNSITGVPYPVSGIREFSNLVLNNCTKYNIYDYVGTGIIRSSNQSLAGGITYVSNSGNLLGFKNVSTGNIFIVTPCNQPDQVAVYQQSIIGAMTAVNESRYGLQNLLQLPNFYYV

T2: HCoV-HKU1 Spike/S1 Protein (HCoV-HKU1, UniProt Q0ZME7 13-756)
T2 construct: domain: Spike/S1; also called HKU1-HIS
T2 sequence: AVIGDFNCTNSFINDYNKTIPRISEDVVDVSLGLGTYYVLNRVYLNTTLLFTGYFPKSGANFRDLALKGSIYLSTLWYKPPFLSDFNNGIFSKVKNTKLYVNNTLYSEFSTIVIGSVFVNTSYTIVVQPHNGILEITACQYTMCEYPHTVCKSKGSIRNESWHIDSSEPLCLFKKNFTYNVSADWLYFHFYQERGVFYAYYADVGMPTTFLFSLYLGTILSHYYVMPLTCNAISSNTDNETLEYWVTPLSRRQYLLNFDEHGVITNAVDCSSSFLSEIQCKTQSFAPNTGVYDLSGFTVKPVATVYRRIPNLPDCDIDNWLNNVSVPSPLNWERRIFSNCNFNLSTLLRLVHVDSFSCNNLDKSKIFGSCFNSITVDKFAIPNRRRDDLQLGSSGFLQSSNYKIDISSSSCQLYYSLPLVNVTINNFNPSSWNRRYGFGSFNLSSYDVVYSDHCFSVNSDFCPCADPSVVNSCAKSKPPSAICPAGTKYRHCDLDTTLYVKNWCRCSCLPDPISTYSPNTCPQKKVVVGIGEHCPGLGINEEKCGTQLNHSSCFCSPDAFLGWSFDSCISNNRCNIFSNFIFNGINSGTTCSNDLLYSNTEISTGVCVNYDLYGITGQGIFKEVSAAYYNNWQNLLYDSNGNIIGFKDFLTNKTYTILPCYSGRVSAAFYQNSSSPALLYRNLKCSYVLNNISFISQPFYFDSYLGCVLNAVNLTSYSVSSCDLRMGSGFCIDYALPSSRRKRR

T3: HCoV-OC43 Spike Protein (HCoV-OC43, UniProt P36334 14-1297)
T3 construct: also called OC43-HIS
T3 sequence: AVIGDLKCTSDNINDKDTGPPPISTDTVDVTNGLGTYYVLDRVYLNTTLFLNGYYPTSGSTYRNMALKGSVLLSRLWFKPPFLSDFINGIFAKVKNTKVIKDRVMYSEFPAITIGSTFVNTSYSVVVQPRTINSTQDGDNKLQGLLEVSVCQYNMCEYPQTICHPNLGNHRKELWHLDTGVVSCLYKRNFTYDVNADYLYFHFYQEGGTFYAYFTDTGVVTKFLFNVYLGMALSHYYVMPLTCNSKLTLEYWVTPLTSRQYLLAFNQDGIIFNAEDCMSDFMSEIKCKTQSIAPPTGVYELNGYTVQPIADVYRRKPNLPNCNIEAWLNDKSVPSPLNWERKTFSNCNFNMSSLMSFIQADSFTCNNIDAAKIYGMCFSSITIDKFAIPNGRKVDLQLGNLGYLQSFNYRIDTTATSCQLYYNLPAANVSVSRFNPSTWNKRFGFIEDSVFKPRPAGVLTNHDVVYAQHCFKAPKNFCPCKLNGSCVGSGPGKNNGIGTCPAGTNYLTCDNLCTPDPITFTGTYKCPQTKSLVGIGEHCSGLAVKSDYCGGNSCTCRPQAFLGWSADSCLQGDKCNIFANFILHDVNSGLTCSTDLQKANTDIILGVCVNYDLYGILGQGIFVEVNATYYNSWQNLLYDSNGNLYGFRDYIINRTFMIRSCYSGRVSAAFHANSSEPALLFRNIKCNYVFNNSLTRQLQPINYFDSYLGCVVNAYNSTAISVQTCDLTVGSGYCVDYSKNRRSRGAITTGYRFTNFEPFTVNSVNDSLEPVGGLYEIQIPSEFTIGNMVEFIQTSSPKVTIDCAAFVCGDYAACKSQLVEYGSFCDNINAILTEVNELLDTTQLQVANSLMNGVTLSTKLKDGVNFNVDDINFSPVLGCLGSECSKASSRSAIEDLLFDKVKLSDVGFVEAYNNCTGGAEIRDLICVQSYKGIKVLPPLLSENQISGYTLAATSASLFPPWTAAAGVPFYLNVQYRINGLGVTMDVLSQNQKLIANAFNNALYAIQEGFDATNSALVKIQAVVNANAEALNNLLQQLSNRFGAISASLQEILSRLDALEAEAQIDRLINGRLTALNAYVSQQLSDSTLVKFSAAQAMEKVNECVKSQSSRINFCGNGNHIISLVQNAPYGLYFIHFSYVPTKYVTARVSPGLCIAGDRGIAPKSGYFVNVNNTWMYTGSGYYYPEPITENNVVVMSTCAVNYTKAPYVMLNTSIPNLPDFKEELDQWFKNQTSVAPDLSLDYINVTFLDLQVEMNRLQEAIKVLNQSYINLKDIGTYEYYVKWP

T4: HCoV-229E Spike/S1 Protein (HCoV-229E, UniProt P15423 16-536)
T4 construct: domain: Spike/S1; also called 229E-HIS
T4 sequence: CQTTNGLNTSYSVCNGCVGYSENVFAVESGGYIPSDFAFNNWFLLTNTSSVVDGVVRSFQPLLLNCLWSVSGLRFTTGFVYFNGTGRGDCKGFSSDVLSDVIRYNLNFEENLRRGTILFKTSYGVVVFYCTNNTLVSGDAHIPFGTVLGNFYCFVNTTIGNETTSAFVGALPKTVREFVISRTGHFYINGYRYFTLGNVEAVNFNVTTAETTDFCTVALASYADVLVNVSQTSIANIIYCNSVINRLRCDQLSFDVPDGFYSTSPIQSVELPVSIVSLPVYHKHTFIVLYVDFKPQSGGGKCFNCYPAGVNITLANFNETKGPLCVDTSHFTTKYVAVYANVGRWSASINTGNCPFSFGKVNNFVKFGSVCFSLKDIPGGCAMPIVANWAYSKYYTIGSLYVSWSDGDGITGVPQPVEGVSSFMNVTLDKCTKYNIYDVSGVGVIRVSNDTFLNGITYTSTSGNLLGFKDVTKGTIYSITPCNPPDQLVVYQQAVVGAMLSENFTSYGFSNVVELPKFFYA

B1: phage clone #20 (scFv)
scFv: SYVLTQPPSASGTPGQRVTISCSGSSSNIGSNTVNWYQQLPGTAPKLLIYSNNQRPSGVPDRFSASKSGTSASLAISGFQSEDEADYYCAAWDDSLDGYVFGTGTKVTVLGSRGGGGSGGGGSGGGGSLEMAEVQLVQSGAEVKKPGESLKISCKGSGYSFPSYWIGWVRQMPGKGLEWMGIIYPGDSDTRYSPSFQGQVTISADKSISTAYLQWSSLKASDTAMYYCARGSYTYMGGSYDYWGQGTLVTVSSTSGQAGQ
B2: phage clone #30 (scFv)
scFv: QSALTQPPSASGSPGQSVTISCTGTSSDVGGYDYVSWYQQHPGKAPKLMIYEVSKRPSGVSNRFSGSKSGNTASLTISGLQAEDEADYYCSSYTSSSTFPYVFGTGTKVTVLGSRGGGGSGGGGSGGGGSLEMAEVQLVESGGGLEQPGGSLRLSCAASGFTFSSYAMSWVRQAPGKGLEWVSAISASGNSTFYADSVKGRFTISRDNSKHTLDLQMNSLRADDTAVYYCARNSDVWGQGTLVTVSSTSGQAGQ
B3: phage clone #13 (scFv)
scFv: QSVLTQPPSASGTPGQRVTISCSGSSSNIGSNYVYWYQQLPGTAPKLLIYRNNQRPSGVPDRFSGSKSGTSASLAISGLRSEDEADYYCAAWDDSLSGPNYVFGTGTKVTVLGSRGGGGSGGGGSGGGGSLEMAQVQLVQSGAEVKKPGSSVKVSCKASGGTFSSYAISWVRQAPGQGLEWMGWISGYNGNTNYAQKLQGRVTMTTDTSTSTAYMELRSLRSDDTAVYYCARTGWSKGEKVTTWGEWFYVDYWGQGTLVTVSSTSGQAGQ
B4: phage clone #19 (scFv)
scFv: QSALTQPASVSGSPGQSITISCTGTSSDVGGYNYVSWYQQHPGKVPKLMIYEVSNRPSGVSNRFSGSKSGNTASLTISGLQAEDEADYYCSSYTSGDTLVFGGGTKVTVLGSRGGGGSGGGGSGGGGSLEMAELQLVESGGGVVQPGRSPRLSCAASGFTFSNYPMHWVRQAPGKGLEWVAVISYDGNHKYYADSLEGRFSISRDNSKNTLYLQMNSLTAADTAVYYCARGGGMGGLDSWGQGTLVTVSSTSGQAGQ

The target in the first assay is T1, HCoV-NL63 Spike/S1 Protein. Briefly: phage ELISA.
For B1, the binding result was “no binding”.
For B2, the binding result is “no binding”.
On the same count and under the same terms, the same measure for B3: “no binding”; for B4: “no binding”.

The next assay has as its target T2, HCoV-HKU1 Spike/S1 Protein. Briefly: phage ELISA.
Consider B1, for which the binding result is given as “no binding”.
B2: the binding result is given as “no binding”.
Still for that read-out and setting: the same measure for B3: “no binding”; for B4: “no binding”.

For a further assay, the target named is T3, HCoV-OC43 Spike Protein. Kind of assay: phage ELISA. In general terms: An ELISA detects its analyte on a solid surface through an enzyme-linked reagent.
Regarding B1, the binding result is reported as “no binding”.
B2: the binding result is “no binding”.
On to B3, for which the binding result is listed as “no binding”.
As to B4, the binding result is on record as “no binding”.

The target in a further assay is T4, HCoV-229E Spike/S1 Protein. Kind of assay: phage ELISA.
Regarding B1, the binding result is reported as “no binding”.
For B2, the binding result is reported as “no binding”.
Regarding B3, the binding result was “no binding”.
Regarding B4, the binding result is reported as “no binding”.
